Data from patent US20190262327A1, “COMBINATION OF A BACE INHIBITOR AND AN ANTIBODY OR ANTIGEN-BINDING FRAGMENT FOR THE TREATMENT OF A DISORDER ASSOCIATED WITH THE ACCUMULATION OF AMYLOID BETA” (ASTRAZENECA AB, priority 2016, published 2019).
Substitutions are numbered along the chain they refer to.

B1: Abet0380: optimized anti-Aβ1-42 clone derived from Abet0144-GL, non-germlined (protein)
scFv (part 1 of 2): EVQLLESGGGLVQPGGSLRLSCAASMGNFNYQTMWWVRQAPGRGLEWVSVIGKTNENIAYADSVKGRFTISRDNSKNTLYLQMNSLRAEDTAVYYCAREWMDHSRPYYYYGMDVWGQGTLVTVSS
scFv (part 2 of 2): SYELTQPPSVSVSPGQTASITCSGHNLEDKFASWYQQKPGQSPVLVIYRDDKRPSGIPERFSASNSGHTATLTISGTQATDEADYYCSSQDTVTRVFGGGTKLTVL
modifications: left off: small tags and cut ends
notes: optimized anti-Aβ1-42 clone derived from Abet0144-GL, non-germlined
B2: Abet0369: optimized anti-Aβ1-42 clone derived from Abet0144-GL (protein)
scFv (part 1 of 2): EVQLLESGGGLVQPGGSLRLSCAASSFQISKNTMWWVRRAPGKGLEWVSVIGKDETRFNYADSVKGRFTISRDNSKNTLYLQMNSLRAEDTAVYYCAREWMDHSRPYYYYGMDVWGQGTLVTVSS
scFv (part 2 of 2): B1 scFv (part 2 of 2) with E3G, H25R, L27I, E28G, K30S, F31W, A32V, S33A
modifications: left off: small tags and cut ends
notes: optimized anti-Aβ1-42 clone derived from Abet0144-GL
B3: Abet0377: optimized anti-Aβ1-42 clone from quaternary library (protein)
scFv (part 1 of 2): B1 scFv (part 1 of 2) with M26G, G27F, Y31E, M34L, R43K, K53V, T54G, N55T, E56K, S63T
scFv (part 2 of 2): B1 scFv (part 2 of 2) with L27T, D29H, F31W, A32I, S64T
modifications: left off: small tags and cut ends
notes: optimized anti-Aβ1-42 clone from quaternary library
B4: Abet0381: optimized anti-Aβ1-42 clone derived from Abet0144-GL (protein)
scFv (part 1 of 2): EVQLLESGGGLVQPGGSLRLSCAASSPSFPRETMWWVRQAPGKGLEWVSVIGTQPNRLTYADSVKGRFTISRDNSKNTLYLQMNSLRAEDTAVYYCAREWMDHSRPYYYYGIDVWGQGTLVTVSP
scFv (part 2 of 2): B1 scFv (part 2 of 2) with V12A, A32V, D84N, V96A
modifications: left off: small tags and cut ends
notes: as for B2
B5: Abet0383: optimized anti-Aβ1-42 clone derived from Abet0144-GL (protein)
scFv (part 1 of 2): EVQLLESGGGLVQPGGSLKLSCAASGFTFDWYPMWWVRQAPGKRLEWISVIGADNAKIAYADSVKGRFTISRDNSKNTLYLQMNSLRAEDTAVYYCAREWMGHSRPYYYYGMDVWGQGTPVTVSS
scFv (part 2 of 2): B1 scFv (part 2 of 2) with E28G
modifications: left off: small tags and cut ends
notes: as for B2
B6: Abet0319: optimized anti-Aβ1-42 clone derived from Abet0144-GL (protein)
scFv (part 1 of 2): EVQLLESGGGLVQPGGSLRLSCAASVSVYNKDTMWWVRQAPGKGLEWVSVIGSSGGTTVYADSVKGRFTISRDNSKNTLYLQMNSLRAEDTAVYYCAREWMDHSRPYYYYGMDVWGQGTLVTVSS
scFv (part 2 of 2): B1 scFv (part 2 of 2) with L27I, E28M, F31W, A32V, Q41R, V44A
modifications: left off: small tags and cut ends
notes: as for B2
B7: Abet0321b: optimized anti-Aβ1-42 clone derived from Abet0144-GL (protein)
scFv (part 1 of 2): B6 scFv (part 1 of 2) with V26A, S27Y, V28H, Y29S, K31H, T33P, V59A
scFv (part 2 of 2): B1 scFv (part 2 of 2) with V46I
modifications: left off: small tags and cut ends
notes: as for B2

Each molecule was assayed against T1, human Amyloid beta 1-42 peptide (Homo sapiens, UniProt P05067) (assay: Abet0144-GL HTRF epitope competition assay). Settings: purified competitor scFv; inhibition of human Amyloid beta 1-42 : Abet0144-GL IgG1-TM complex.
T1 construct: biotinylated human Amyloid beta 1-42 peptide (rpeptide, USA; cat: A1117); purchased rPeptide, USA A1117; host or cells: synthetic peptide
T1 sequence (P05067 672-713): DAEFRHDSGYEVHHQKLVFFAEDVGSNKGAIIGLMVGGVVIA
Type: binding
Procedure: Two thousand and twenty four scFv chosen at random from selection rounds 3 and 4 of the targeted mutagenesis approach described in section 1.2 were expressed in bacteria to produce unpurified periplasmic scFv. Those scFv capable of binding synthetic human amyloid beta 1-42 peptide via the same epitope as Abet0144-GL IgG1-TM were elucidated in a competition format assay, using the HTRF™ platform. Specifically, fluorescence resonance energy transfer (FRET) was measured between streptavidin cryptate (associated with biotinylated amyloid beta 1-42 peptide) and anti-human Fc XL665 (associated with Abet0144-GL IgG1-TM) in the presence of a single concentration of each unpurified periplasmic test scFv.
A ‘Total’ binding signal was determined by analysing the binding of Abet0144-GL IgG1-TM to synthetic human Amyloid beta 1-42 peptide in the absence of competitor peptide. The ‘Sample’ signals were derived from analysing the binding of Abet0144-GL IgG1-TM to synthetic human Amyloid beta 1-42 peptide in the presence of a test scFv sample. Finally, a ‘Cryptate Blank’ signal was determined by analysing the fluorescence mediated by the detection reagent cocktail alone.
Unpurified periplasmic scFv were supplied in sample buffer consisting of 50 mM MOPS, pH 7.4, 0.5 mM EDTA, and 0.5 M sucrose. […] Assay plates were sealed and then incubated for 3 hours at room temperature in the dark, prior to measuring time-resolved fluorescence at 620 and 665 nm emission wavelengths on a fluorescence plate reader.
Data were analysed by calculating % Delta F values for each sample. % Delta F was determined according to equation 1. […]
Data were again analysed by calculating the % Delta F and % Total binding values for each sample. In addition, a % Inhibition value for each concentration of purified scFv was also calculated as described in Equation 3: […]
In the case of B1, the “potency over the parent Abet0144-GL scFv sequence (FIG. 1)” value is reported as “significant improvement in potency”.
B2 was tested, and the “potency over the parent Abet0144-GL scFv sequence (FIG. 1)” value was “significant improvement in potency”.
In the case of B3, the “potency over the parent Abet0144-GL scFv sequence (FIG. 1)” value is reported as “significant improvement in potency”.

These molecules were tested against T1, human Amyloid beta 1-42 peptide (assay: Surface Plasmon Resonance kinetic profiling of purified scFv (ProteOn)). Settings: biotinylated human Amyloid beta 1-42 on streptavidin chip.
Type: binding
From the text: Surface Plasmon Resonance was used to analyse the purified scFv clones that had shown significant improvement in binding affinity for human Amyloid beta 1-42 peptide over the parent sequence, Abet0144-GL, in the HTRF™ epitope competition assay (sections 1.3-1.6). Briefly, the ProteOn Protein Interaction Array System (BioRad, USA) was used to assess the kinetic parameters of the interaction between each purified scFv and synthetically produced human Amyloid beta 1-42 peptide. These experiments were performed essentially as described by Karlsson et al. (Karlsson et al., 1991).
The affinity of binding between each test scFv and human Amyloid beta 1-42 was estimated using assays in which biotinylated synthetic human Amyloid beta 1-42 peptide (rPeptide, USA; cat: Al 117) was non-covalently bound via a biotin/streptavidin interaction to a proprietary streptavidin chip (NTA 176-5021) at five different surface densities. The chip surface was regenerated between cycles by a single 60 second injection of 10 mM Glycine pH 2.0 to remove scFv bound to the peptide.
Each scFv at 100-200 nM was sequentially passed over the peptide surface for a sufficient amount of time to observe sensorgrams that could be fitted to an appropriate binding model with confidence. An irrelevant scFv blank was subtracted from the main dataset to reduce the impact of any buffer artefacts or non-specific binding effects. An appropriate binding model was then fitted to the data.
B1 was tested, and the “ka” value was 193000 M⁻¹ s⁻¹ and the “kd” value was 2.85e-05 s⁻¹.
With B2 the “ka” value was 327000 M⁻¹ s⁻¹ and the “kd” value was 4.34e-05 s⁻¹.
In the case of B3, the “ka” value is reported as 196000 M⁻¹ s⁻¹ and the “kd” value is reported as 3.02e-05 s⁻¹.
With B4 the “ka” value was 213000 M⁻¹ s⁻¹ and the “kd” value was 5.14e-05 s⁻¹.
With B5 the “ka” value was 181000 M⁻¹ s⁻¹ and the “kd” value was 3.94e-05 s⁻¹.
For B6, the “ka” value was 329000 M⁻¹ s⁻¹ and the “kd” value was 0.000129 s⁻¹.
In the case of B7, the “ka” value is reported as 150000 M⁻¹ s⁻¹ and the “kd” value is reported as 3.33e-05 s⁻¹.

Same assay, conditions: biotinylated human Amyloid beta 1-42 on streptavidin chip, listed as Abet0380 scFv
In the case of B1, the “ka” value is reported as 193000 M⁻¹ s⁻¹ and the “kd” value is reported as 2.85e-05 s⁻¹.
